Results: PMC6757426, “Stability and flexibility of full-length human oligodendrocytic QKI6” (BMC Research Notes, 2019)

Target: the molecule itself
Test: SEC-MALS; Superdex 200 pg increase 10/300GL, 20 mM Tris-HCl, 300 mM NaCl, 0.5 mM TCEP, pH 8.0; 200 ug QKI6 injected at 0.4 ml/min; no RNA

B1: Quaking isoform 6 (QKI6), full-length human (natural protein, UniProt Q96PU8-9 1-319, looked up)
chain: MVGEMETKEKPKPTPDYLMQLMNDKKLMSSLPNFCGIFNHLERLLDEEISRVRKDMYNDTLNGSTEKRSAELPDAVGPIVQLQEKLYVPVKEYPDFNFVGRILGPRGLTAKQLEAETGCKIMVRGKGSMRDKKKEEQNRGKPNWEHLNEDLHVLITVEDAQNRAEIKLKRAVEEVKKLLVPAAEGEDSLKKMQLMELAILNGTYRDANIKSPALAFSLAATAQAAPRIITGPAPVLPPAALRTPTPAGPTIMPLIRQIQTAVMPNGTPHPTAAIVPPGPEAGLIYTPYEYPYTLAPATSILEYPIEPSGVLGMAFPTKG
notes: Quaking isoform 6 (QKI6), human, UniProt Q96PU8-9, amino acids 1-319; calculated molecular weight of the construct 35,187.8 Da; also called full-length QKI6; human QKI6; source: E. coli BL21(DE3), purified (Ni-NTA, TEV digestion, second Ni-NTA, gel filtration on Superdex 200)
  stoichiometry N: 2
